Assay results: doi:10.1101/2022.08.26.505501 (bioRxiv, 2022)

T1: co-expressed Kae1-Pcc1 subcomplex (2Kae1:2Pcc1) (Saccharolobus islandicus REY15A, UniProt F0NFC9 1-331; F0NF65 1-91)
T1 sequence (looked up) 1: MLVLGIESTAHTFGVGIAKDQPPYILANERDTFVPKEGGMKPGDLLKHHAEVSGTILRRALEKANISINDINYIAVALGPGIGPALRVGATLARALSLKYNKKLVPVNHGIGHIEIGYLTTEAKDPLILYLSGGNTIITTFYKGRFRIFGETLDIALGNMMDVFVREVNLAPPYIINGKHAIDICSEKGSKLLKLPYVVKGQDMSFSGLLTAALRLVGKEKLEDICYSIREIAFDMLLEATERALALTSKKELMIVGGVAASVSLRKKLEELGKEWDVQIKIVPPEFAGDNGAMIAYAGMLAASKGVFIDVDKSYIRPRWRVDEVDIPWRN
T1 sequence (looked up) 2: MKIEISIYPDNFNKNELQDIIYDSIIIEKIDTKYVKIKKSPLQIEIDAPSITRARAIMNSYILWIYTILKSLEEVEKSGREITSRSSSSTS

T2: His-Pcc1 co-expressed with no-tagged SisKae1 (Saccharolobus islandicus REY15A, UniProt F0NF65 1-91)
T2 sequence (looked up): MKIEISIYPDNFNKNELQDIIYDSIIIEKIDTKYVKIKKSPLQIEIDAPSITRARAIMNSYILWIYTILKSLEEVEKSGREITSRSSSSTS

B1: His-SisPcc1-like (natural protein, Saccharolobus islandicus REY15A, UniProt F0NIH8 1-81, looked up)
chain: MIELRILSEHEDAELIIRSLNVDNVNLPEGMSIQTKVEGKELEIVIKMRITKPNDLMTVRNTADEILAHIKALQSSFDAIS
B2: no-tagged SisKae1 (enzyme, Saccharolobus islandicus REY15A, UniProt F0NFC9 1-331, looked up)
chain: MLVLGIESTAHTFGVGIAKDQPPYILANERDTFVPKEGGMKPGDLLKHHAEVSGTILRRALEKANISINDINYIAVALGPGIGPALRVGATLARALSLKYNKKLVPVNHGIGHIEIGYLTTEAKDPLILYLSGGNTIITTFYKGRFRIFGETLDIALGNMMDVFVREVNLAPPYIINGKHAIDICSEKGSKLLKLPYVVKGQDMSFSGLLTAALRLVGKEKLEDICYSIREIAFDMLLEATERALALTSKKELMIVGGVAASVSLRKKLEELGKEWDVQIKIVPPEFAGDNGAMIAYAGMLAASKGVFIDVDKSYIRPRWRVDEVDIPWRN

Assays:
Assay in all cases: SEC
no-tagged SisKae1 = target: B2
[1] = target: Flag-tagged SisKae1 co-expressed with His-tagged SisPcc1-like (Saccharolobus islandicus REY15A)
[2] = target: T1, co-expressed Kae1-Pcc1 subcomplex …
[3] = target: T2, His-Pcc1 co-expressed with no-tagged …

Binder | stoichiometry N (no-tagged SisKae1) | stoichiometry N (Pcc1-like per Kae1) [1] | stoichiometry N [2] | stoichiometry N [3]
B1 | 1 Kae1:Pcc1-like (1:1) | 2 | 1 Kae1:Pcc1:Pcc1-like (1:1:1) | 
B2 |  |  |  | 1 Kae1:Pcc1 (2:2)
